Consider 2 molecules from patent publication EP4582453A1 (Cichlid Inc., dated 2025).

This experiment addresses T1, human CTLA-4 protein overexpressed in the HEK293 cell line (human, UniProt P16410 36-223).
T1 construct: whole, on cells; also called CTLA-4/HEK293 cell line; CTLA-4 expressing cell line
T1 sequence (looked up): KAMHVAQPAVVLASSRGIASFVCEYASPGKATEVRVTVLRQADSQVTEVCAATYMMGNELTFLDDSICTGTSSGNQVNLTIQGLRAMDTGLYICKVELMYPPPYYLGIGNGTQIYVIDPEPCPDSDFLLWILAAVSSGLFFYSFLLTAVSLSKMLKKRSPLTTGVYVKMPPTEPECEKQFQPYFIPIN
Kind of experiment: cell ELISA of HA-tagged scFv extract on CTLA-4-expressing HEK293 cells, anti-HA HRP. (ELISA stands for enzyme-linked immunosorbent assay.)

B1: 4B6 scFv (scFv, V domains shown)
VH: EVQLLESGGGLVQPGGSLRLSCAASGFTFSGYSMSWVRQAPGKGLEWVSSISPSGGNTYYADSVKGRFTISRDNSKNTLYLQMNSLRAEDTAVYYCAKTSELFDYWGQGTLVTVSS
VL: QSVLTQPPSASGTPGQRVTISCTGSSSNIGSNDVNWYQQLPGTAPKLLIYNDSHRPSGVPDRFSGSKSGTSASLAISGLRSEDEADYYCGTWDYSLSAYVFGGGTKLTV
notes: HA-tagged scFv
In the case of B1, the binding result is on record as “binds”.

B2: 3E4 scFv (scFv, V domains shown)
VH: EVQLLESGGGLVQPGGSLRLSCAASGFTFSNYAMSWVRQAPGKGLEWVSVIYYDGSNKYYADSVKGRFTISRDNSKNTLYLQMNSLRAEDTAVYYCARNTYRFDYWGQGTLVTVSS
VL: QSVLTQPPSASGTPGQRVTISCSGSSSNIGNNAVTWYQQLPGTAPKLLIYSDSNRPSGVPDRFSGSKSGTSASLAISGLRSEDEADYYCGSWDSSLSGYVFGGGTKLTVL
notes: HA-tagged scFv from a synthetic human scFv phage library, tested as an E. coli extract; VH and VL form one chain in the scFv
B2: the binding result is reported as “binds”.
